# Results taken from the RNAGym collection of RNA variant scans (doi:10.7554/elife.80360).
# B1: Hairpin Ribozyme (parent)
# chain: GUCCUCUUUCACGUGCGCGUGAAAGAGAGAAGUGAACCAGAGAAACACACGUUGUGGUAUAUUACCUGGUA
# Variants of: B1
# Test: self-cleavage, relative activity (ratio to wild type); higher = more cleavage; co-transcriptional
row,Variant,self-cleavage
1,U8A U58C,0.913
2,U8A U58G,0.515
3,U8A A61C,0.165
4,U7A A30G,0.305
5,U7G U63A,0.179
6,U7G U63G,0.145
7,U7A U14A,1.03
8,U7A U14G,0.881
9,U8C,0.739
10,U8A,0.745
11,U8G,0.764
12,U8A G19U,0.661
13,U7A A35U,0.714
14,U7A C66U,0.461
15,U7A C66A,0.269
16,C6U U33C,0.135
17,U7G A44U,0.139
18,U7C A43C,0.0702
19,U8A G42U,0.261
20,U8A G42C,0.147
21,U8A A59U,0.165
22,U8C A26U,0.336
23,U8A G54A,0.396
24,U8A C16G,0.632

row,Variant,self-cleavage
1,U8A C16A,0.876
2,U8C A11C,0.289
3,U7G G32U,0.135
4,U7G G32A,0.173
5,U7C C10U,0.9
6,U7C C10A,0.815
7,U8A G27C,0.186
8,U8A G15A,0.826
9,U7C A59C,0.251
10,U7C U62G,0.179
11,U7A A24C,1.02
12,U7G C50G,0.143
13,U8C G42U,0.252
14,U8A C18A,0.872
15,C6U U55G,0.375
16,C6U U55C,0.183
17,C6U U55A,0.217
18,U7A A71C,1.34
19,U8C G51A,0.855
20,U8C G51C,0.701
21,U8C G51U,0.901
22,U7A U70G,0.921
23,U7A U70A,0.766
24,U8C C66A,0.19

row,Variant,self-cleavage
1,U8C C66U,0.273
2,U7G U9C,0.66
3,U7G A45U,0.2
4,U7C U33A,0.068
5,U7G A23U,0.883
6,U8C G21U,0.142
7,U8C U14G,0.501
8,U7C U70C,1.04
9,U7C U70A,1.02
10,U8C U33C,0.214
11,U8C U33G,0.36
12,U7A G42C,0.357
13,U7A G42U,0.173
14,U8C U70G,0.35
15,U8A C46A,0.133
16,U8A C46U,0.0775
17,U8C G40A,0.274
18,U8A G56A,0.158
19,U8C A43U,0.241
20,U8C A43G,0.16
21,U8C A31C,0.0859
22,U8C A31U,0.14
23,U8C A31G,0.241
24,U8G A11G,0.704

row,Variant,self-cleavage
1,U7G C37G,0.239
2,U7G C37U,0.531
3,U7C U52A,0.82
4,U8C U58A,0.552
5,U8C U58C,0.911
6,U8A A39G,0.279
7,U8A A39U,0.334
8,C6U U52C,0.773
9,C6U U52A,0.965
10,U8A A64G,0.503
11,U7A U58A,0.58
12,U7G G42U,0.299
13,U8C G29C,0.0996
14,U7A A31U,0.11
15,U7A A31G,0.77
16,U7A A31C,0.0614
17,U7A G34U,1.4
18,U7A G34C,1.36
19,U7G A49U,0.15
20,U7G A49C,0.141
21,U7A A59U,0.182
22,U7C C16A,0.913
23,U7C C16G,0.456
24,U7A U67G,0.282

row,Variant,self-cleavage
1,U7A U67A,0.223
2,U7G U58A,0.655
3,U7G U58G,0.645
4,U8A G40U,0.109
5,U7C U63A,0.19
6,U7C U63G,0.161
7,U7A C16A,0.911
8,U7G A22C,0.515
9,U7G A22G,0.908
10,U7G C46U,0.129
11,U8A A35C,0.911
12,U8A G17A,0.742
13,U7G A61U,0.203
14,U7G A47C,0.234
15,U7G A47U,0.0788
16,U7G G15A,0.736
17,U7A C37U,0.403
18,U7A C37A,0.261
19,U7C A49C,0.0316
20,U7G A24G,0.697
21,U7C U8G,0.484
22,U8C A59U,0.116
23,U8C A39U,0.25
24,U8C A39G,0.201

row,Variant,self-cleavage
1,U8C U63G,0.188
2,U7G C16A,0.929
3,U7G G57C,0.206
4,U7G C66U,0.355
5,U7C A45C,0.136
6,U7C A45G,0.104
7,U7C G21A,0.618
8,C6U U9A,0.517
9,U7A C12U,0.797
10,U7A C12A,0.549
11,U8C G25C,0.148
12,U8C G25A,0.197
13,U7A U52C,0.953
14,U7G G51U,0.844
15,U8A G34C,0.902
16,U8A G34U,1.05
17,U7A A47G,0.0992
18,U7A A47U,0.0924
19,U7A A47C,0.34
20,U8G A22U,0.582
21,U7A G32U,0.149
22,U7A G32A,0.145
23,U7G G19U,0.414
24,U8C U9G,0.374

row,Variant,self-cleavage
1,U7G G25A,0.316
2,U8A C38A,0.15
3,U8A C38G,0.102
4,U8A U53C,0.778
5,U7G A31C,0.11
6,U8A U33A,0.0975
7,U8A U33G,0.0531
8,U7G G13C,0.618
9,U8C A61G,0.0942
10,U7C A28G,1.02
11,U7G G29C,0.134
12,U7G G29A,0.22
13,U8A G51U,0.92
14,U8A G51A,0.749
15,U7G A30G,0.081
16,U7A G17U,0.89
17,U7A G21C,0.664
18,U7A G21U,0.683
19,U8C G17A,0.632
20,U8C A24G,0.502
21,U8C A24C,0.196
22,U7A C38A,0.28
23,U8A U63C,0.218
